According to patent publication US20240109958A1:
Positions count from the first letter of the chain named. Blank lines part the entries; values can stand above or below the binder they belong to.

Target: internal GGX peptides (genome-encoded GGX sequences exposed by trypsin digestion of HEK293 lysate)
Assay: immunoaffinity enrichment from trypsin-digested HEK293 lysate, LC-MS/MS; count of internal GGX sequences enriched

- Shared sequences: 8 sequences
- Unique sequences: 8 sequences
B1: anti-GGX monoclonal antibody 2B12 (rabbit IgG) (antibody, V domains shown)
VH: QSVEESGGGLVTPGGALTLTCTASGFSLNRHWMNWVRQAPGKGLEWIGAINESGRTYYATWAKGRFFISKTTTTVDLKITSPTTADTATYFCVRDDDVSNFWGPGTLVTVSS
VL: DPMLTQTPSSVSAAVGGTVSINCQSTKSVYKYNHLSWYQQKPGQPPKQLIFPASTLQSGVPSRFSGSGSGTQFTLTISDVQCDDAATYYCLGLYDCRSGDCNVFGGGTKLEIKG

- Shared sequences: 14 sequences
- Unique sequences: 41 sequences
B2: anti-GGX monoclonal antibody 2E9 (rabbit IgG) (antibody, V domains shown)
VH: QKQLMESGGRLVTPGTPLTLTCKVSGFSLSSYYMNWVRQAPGKGLEWIGIMFPNGKIYYATWAKGRFTISKTSTTVDLKIISPTTEDTATYFCTGDDSGDVNIWGPGTLVTVSS
VL: DIVLTQTASPVSAAVGGTVTINCQSSQSVYTNNRLAWYQQKPGQPAKEMIYGASTLPSGVSSRFKGSGSGTQFALTISDVQCDDAATYYCLGEFDCTSADCFVFGGGTEVVVKG

- Shared sequences: 20 sequences
- Unique sequences: 47 sequences
B3: anti-GGX monoclonal antibody 2H2 (rabbit IgG) (antibody, V domains shown)
VH: QSVEESRGRLVTPGTPLTLTCKVSGFSLSSYYMNWVRQAPGKGLEWIGIMFPNGKIYYATWAKGRFTISKTSTTVDLKIISPTTEDTATYFCTGDDSGDVNIWGPGTLVTVSS
VL: B2 VL with I2P, V3M, T31S, A46P, A74T, E93T, F94Y, T97L, F102L, V103A
